# The nanobody polyreactivity screen of Harvey et al. (2022)
# Test: yeast display, Sf9 membrane polyspecificity reagent, FACS + sequencing; frameworks hold sequencing errors
# Procedure, shortened: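 Polyreactivity labels are assigned by the sorting gate from which each nanobody was recovered. The gates were low and high (top ~1%), set on anti-HA fluorescence for expression and streptavidin fluorescence for reagent binding. Before sorting, galactose-induced (36–48 hours) yeast display cells were stained for 1 hour at 4 °C with 10% biotinylated, detergent-solubilized Sf9 membrane reagent.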
row,Sequence,polyreactivity (PSR sort gate)
1,QVQLVESGGGLVKAGGSLRLSCAASGLISWLYVMGWYRQAPGKERELVAAIRYSGGRTYYADSVKGRFTISRDNAKNTVYLQMHSMKPEDTAVYYCNALPWALYDSTSIYYYWGQGTQVTVSS,low polyreactivity
2,QVQLVESGGGLVKAGGSLRLSCAASGRIFRYYVMGWYRQAPGKERELVASISWRGTSTYYADSVKGRFTISRDNAKNTVYLQMNSLKPEDTAVYYCNAARPGKNYDSWGQGTQVTVSS,high polyreactivity
3,QVQLVESGGGLVKAGGSLRLSCAASGRIFSRNAMGWYRQAPGKERELVAAITRRGGNTYYADSVKGRFTISRDNAKNTVYLQMNSLKPEDTAVYYCATRRYYQRWSPGYDYWGQGTQVTVSS,high polyreactivity
4,QVQLVESGGGLVKAGGSLRLSCAASGRIFWAYAMGWYRQAPGKERELVAAINSGGRTYYADSVKGRFTISRDNAKNTVYLQMNSLKPEDTAVYYCAAAGVYSSDYWGQGTQVTVSS,low polyreactivity
5,QVQLVESGGGLVKAGGSLRLSCAASGRTFGSYAMGWYRLAPGTERELVAAITGSGAGTYYADSVKGRFTISRDNAKNTVYLQMNSLKPEDTSVYYCAARRPWQFYYWVQGTQVTVSS,high polyreactivity
6,QVQLVESGGGLVKAGGSLRLSCAASGRTFGWYVMGWYRQAPGKEMELVAAISLRGGTTYYADSVKGRFTISRDNAKNTVYLQMNSLNPEDTAVYYCAIAGIRHVTCKFKGYHFGYWGQGTQVTVSS,low polyreactivity
7,QVQLVESGGGLVKAGGSLRLSCAASGRTFGYNAMGWYRQAPGKEREFVAAISWSGGRTYYADSVKGRFTISRDNAKNTVYLQMNSLKPEDTAVYYCAAAAPHLSAKMDYWGQGTQVTVSS,low polyreactivity
8,QVQLVESGGGLVKAGGSLRLSCAASGRTFLRNAMGWYRQAPGKERELVATITRGGSTYYADSVKGRFTISRDNAKNTVYLQMNSLKPEDTAVYYCAKDITGCFRRPDYGYWGQGTQVTVSS,low polyreactivity
9,QVQLVESGGGLVKAGGSLRLSCAASGRTFQVYDMGWYRQAPGKERELVAGITRAGSTYYADSVKGRFTISRDNAKNSVYLQMNRLKPEDSAVYYCAASRWHGYNYWGQGTQVTVSS,high polyreactivity
10,QVQLVESGGGLVKAGGSLRLSCAASGRTFRDNAMGWYIQAPGKERELVADIDIDSSTYYADSVKGRFTISRDNAKNTVYLQMNSLKPEDTAVYYCAATFTYLGYWYDYWGQCTQVTVSS,low polyreactivity
11,QVQLVESGGGLVKAGGSLRLSCAASGSIFAFYAMGWYRPAPGKERELVAAINSGGGRTYYEDSVKGRFTISRDNAKYTVYLQMNSLKPEDTAVYYCAARTIHGSNRSYYWGQGTQVTVSS,high polyreactivity
12,QVQLVESGGGLVKAGGSLRLSCAASGSIFRYYTMGWYRQAPGKEWELVAAINGSGGSTYYADSVKGRFTISRDTAKNTVYLQMNSLKPEDTAVYYCNRVTKEYGLRQYYYWGQGTQVTVSS,low polyreactivity
13,QVQLVESGGGLVKAGGSLRLSCAASGSMFWSYAMGWYRQAPGKERELVAAISSGGSTNYADTVKGRFTISRDNAKNTVYLQMNSLKPEDTAVYYCSARFYTTCVRRKRYDYWGQGTQVNVSS,high polyreactivity
14,QVQLVESGGGLVKAGGSLRLSCAASGSTFTYYAMGWYRQAPGKERELVARITWTGGRTYYADSVKGRFTISRGNAKNTVYLQMNSLKPEDTAVNYCNALPYFYETQYDYWGQGTQVTVSS,low polyreactivity
15,QVQLVESGGGLVKAGGSLRLSCASSGYIFPFNAMGWYRQAPGKERELVAAITNGGRTYYADSVKGRFTISRDNAKNTVYLQMNSLKPDDTSVYYCAAGSKSDMDWGQGTQVTVSS,low polyreactivity
16,QVQLVESGGGLVKAGGSLRLSCDASGRIFKYYAMGWYRPAPGKEWELVAAISSVGYTNYADSVKGRFTISRDNAKNTVYLQLNSLKPEDTAVYYCAAPYQHYDVNYDSWGQGTQVTVSS,low polyreactivity
17,QVQLVESGGGLVKAGGSLRLSSAASGYNTNTYAMGWYRQAPGKERELVAAISGSGGSTYYADSVKGRFTMSRDNAKTTVYLQMNSLKPEDTAVYYCNVVVRYPSAYDYWGQGTQVTVSS,high polyreactivity
18,QVQLVESGGGLVKAVGSLRLSCAPSGRISGVYAMGWYRQAPGKERELVAAISWSGGPTYYADSVKGRFTISRDNAKNTFYLEMTSLKPEDTAVYYCNGDTGFRSYLRVYWGQGTQVTVSS,low polyreactivity
19,QVQLVESGGGLVKEGGSLRLSSAASGSTNRYYAMGLYRQAPGKERELVAGITTGGGRTYYADSEKGRFTISRDNAKYTVYLQMTSLKPEDTAVYYCAADRLSHYWYRISYDYWGQCTQVTVSS,high polyreactivity
20,QVQLVESGGGLVKSGGSLRLSCAASGRIFYLYAMGWYRQAPGKERELVAAISRRGGGTSYADSVKGRFTISRDNAKNTVYFQMNSLKPEDTAVYYCNTAYSLGGYWGQGTQVTVSS,high polyreactivity
21,QVQLVESGGGLVLAAGSLRLSCAASGFIFGSYAMGWYRQAPGKERELFAAISRSGGRTYYADSVKGRFTISRDNAKNTVYLQMNSLKPEDTAVYYCAAVHLLVYPTYDYWGQGTQVTVSS,high polyreactivity
22,QVQLVESGGGLVLAGGRLRLSCAASGFTLDYYTMGWYRLAPGKEREFVAAITRRTGNTYYADSVKGRFTISRDNEKITVYLQMNSLKPEDPAVYYCAATFWPWYSGITYYYWGQGTQVTVSS,high polyreactivity

row,Sequence,polyreactivity (PSR sort gate)
1,QVQLVESGGGLVLAGGSLRLSCAASGFIFATYAMGWYRQAPGKERVLVAAISRRGVRTNYADSVKGRFTISRDNAKNTVYLQMNSLKPEDTAVYYSNAQSHYGKIPMYYWGQGTQVTVSS,high polyreactivity
2,QVQLVESGGGLVLAGGSLRLSCAASGFIFSPYVRGWYRQAPGKDRELVAAISSIGGSTYYADSVKGRFTISRDNAKNTVFLQMNSLKPEDTAVYYCADSVYYYASRYDYWGQVTQVTVSS,low polyreactivity
3,QVQLVESGGGLVLAGGSLRLSCAASGFTFEKSVMGWYRQAPGNEREFVAAITRSGGRTYYADSVKGRFTISRDNAKNTVYLQMNSLKPEDTAVYFCAAAFSRSDTGGGSWGQGTQVTVSS,high polyreactivity
4,QVQLVESGGGLVLAGGSLRLSCAASGITFRNYAMGWYRQAPGKEMEFVATISRRAGSTYYADSVKGRFTISRDNAKNTVYLQMNSLKPEDTAVYYCVTYRNWWYDYWGQGTQVTVSS,high polyreactivity
5,QVQLVESGGGLVLAGGSLRLSCAASGLTFEYNAMGWYRQAPGKEGELVASISSGGGTNYADSVKGRFTISRDNAKHTVYLQMNSLKPEDTAVYYCATDNYDWSSWAFRGYWYDYWGQGTQVTVSS,low polyreactivity
6,QVQLVESGGGLVLAGGSLRLSCAASGRIFYQNAMGWYRQAPGKERELVAGITRGGSTYYADSVKGRFTISRDNAKNTVYLQMNSLKPEETAVYYCAVAFWRTKWYDYWGQGTQVTVSS,low polyreactivity
7,QVQLVESGGGLVLAGGSLRLSCAASGRTFKKYAMGWYRQAPGKVRELVAAITSGGSTYYADSVKGRFTISRDNAKNTVYLQMNSLKPEDTAVYYCAAASSQHGNTYYYWGQATQVTVSS,high polyreactivity
8,QVQLVESGGGLVLAGGSLRLSCAASGSIFIHYAMGWYRQARGKERELVAAITGDGNTTYADSVKGRFTISRDNAQNTVNLPINSLKPEDTAVYSCAVTIVDYVWAFDYWGQGTQVNVSS,low polyreactivity
9,QVQLVESGGGLVLAGGSLRLSCAASGSIFNVYAMGWYRQAPGKERELVASITRRRTNYADSVKGRFTISRDNAKNTVYLQMNSLKPEDTAVYYCAATTYVRQYATYDYWGQGTQVTVSS,high polyreactivity
10,QVQLVESGGGLVLAGGSLRLSCAASGSIFWVNAMGWYRQAPGKERELVAAINYSDGSTSYADSVKGRFTISRDIAKNTVYLQMNSLKPEDTAVYYCNAESFELMYYWGQGTQVTVSS,low polyreactivity
11,QVQLVESGGGLVLAGGSLRLSCAASGSILGTYAMGWYRQAPGKERELVARISRGGSTNYADSVKGRFTISRDNAKNTVYLQMNSLKPEDTAVYYCAKRLYLPESWRYYYWGQGTQVTVSS,high polyreactivity
12,QVQLVESGGGLVLAGGSLRLSCAASGSTFGGYAMGWYRQATGKERELVAAISGSGVRTYYADSVKGRFTISRDNAKNTVYLQMNSRKPEDTAVYYCAKRVRYPGDRYYYWGQGTQVTVSS,high polyreactivity
13,QVQLVESGGGLVLEGGSLRLSCPASGRIFTWNAMGWYRHAPGKERELVASISRSGTSTYYADSVKGRFTISRDNAKNTVYLQMNSLKPEDTAVYYCAAKRYGYKMYYWGQGTQVTVSS,high polyreactivity
14,QVQLVESGGGLVLPGGSLRLSCAASGITFTYNAMGWYRQAPGQERELVAAISYSGGSTYYADSVKGRFTISRDNAKNTVYLQMNSLTPEDTAVYYCARRRLLYSGGKSGYYGYYYWGQGTQVNVSS,high polyreactivity
15,QVQLVESGGGLVLPGGSLRLSCAASGSTLYPYAMGWYRQAPGKERELVAAITYGGTSTYYADSVKGRFTISRDNAKNTVYLQMNSQKPEDTALYYCAARGGTTIRYDYWGQGTQVTVSS,high polyreactivity
16,QVQLVESGGGLVPAGGSLRLSCAASGFTFPAYTRGWYRPAPGKERELVAAITSSGGNTYYADSVKGRFTISRDNAKNTVYLQMNSLKPEDTAVYYCNADASSSPYTDRQYIGADDSWGQGTQVTVSS,low polyreactivity
17,QVQLVESGGGLVPAGGSLRLSCAASGFTLYRYVMGWYRQAPGKERELVAAITRGGNTNYADSVKGRFTISRDNAKKTVYLQKNSLKPEDTAVYDCARRYRDYGRYGYWGQGTQVTVSS,high polyreactivity
18,QVQLVESGGGLVPAGGSLRLSCAASGRTFFPYAMAWYRQAPGKEREFVAAITWSGGSTTYADSVKGRFTISRDNAKNTVYLQMNSLKPEDTAVYYCNAGRRRSYSYDYWGQGTQVTVSS,low polyreactivity
19,QVQLVESGGGLVPAGGSLRLSCAASGRTFPYYDMGWYRQAPGKERELVAAITSGGTTNYADSVKGRFTISRDNAKNTVYLQMNSLKPEDTAVYYCAAGSPWYYFSSYGYWGQGTQVTVSS,low polyreactivity
20,QVQLVESGGGLVPAGGSLRLSCAASGRTFWIYAMGWYRQAPGKERELVASIRWSTGNTNYADSVKGRFTISRDNAKNTVYLQMNSLLPEDTAVYYCNARRRWRGGPTYIYWGQGTQVTVSS,high polyreactivity
21,QVQLVESGGGLVPAGGSLRLSCAASGRTFYRYARGWYRKAHGKERELVASITRDGRTNYADSVKGSFTISRDNAKNTVYLQMNSLKPEDTAFYYCNAKLKITHSSSDYWGQGTQVTVSS,high polyreactivity
